Target: Aβ1-42 (UniProt P05067)
Sequence (P05067 whole entry, looked up, tested part not stated): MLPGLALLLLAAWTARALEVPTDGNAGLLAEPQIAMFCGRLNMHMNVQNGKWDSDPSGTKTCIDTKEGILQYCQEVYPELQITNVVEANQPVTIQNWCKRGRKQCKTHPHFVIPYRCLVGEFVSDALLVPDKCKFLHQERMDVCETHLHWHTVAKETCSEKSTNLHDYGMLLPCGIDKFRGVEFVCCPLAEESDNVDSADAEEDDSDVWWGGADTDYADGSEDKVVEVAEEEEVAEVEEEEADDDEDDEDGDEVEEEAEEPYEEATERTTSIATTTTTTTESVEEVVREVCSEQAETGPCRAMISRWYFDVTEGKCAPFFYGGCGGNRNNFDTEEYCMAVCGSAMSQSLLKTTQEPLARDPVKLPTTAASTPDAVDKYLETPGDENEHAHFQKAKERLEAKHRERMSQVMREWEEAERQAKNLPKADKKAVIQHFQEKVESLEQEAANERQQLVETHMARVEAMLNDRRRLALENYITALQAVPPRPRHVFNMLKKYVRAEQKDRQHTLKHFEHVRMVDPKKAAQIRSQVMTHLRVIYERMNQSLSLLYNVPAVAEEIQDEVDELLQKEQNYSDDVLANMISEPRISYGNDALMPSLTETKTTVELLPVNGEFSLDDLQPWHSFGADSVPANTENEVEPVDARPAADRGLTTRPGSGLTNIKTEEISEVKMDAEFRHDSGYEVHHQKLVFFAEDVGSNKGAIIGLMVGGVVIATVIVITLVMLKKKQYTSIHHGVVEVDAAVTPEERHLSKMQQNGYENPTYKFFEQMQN

Cathepsin L was tested, and the “proteolytic products analyzed with SELDI-TOF mass spectrometry” value was “Incubating Aβ1-42 with CatL resulted in the dose-dependent generation of Aβ6-42 through proteolytic cleavage”.
